Results reported in a protein production outcome set (Wang et al. 2014).

Experiment: label from the status in PepcDB records
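Note: failed if final PepcDB status was selected cloned or expressed and not failed if soluble or beyond.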

| Sequence | protein production |
| --- | --- |
| MIDSQFQFTVLTPTYNRAVTLHRVFQSLQRQTCRDFEWVVVDDGSTDNTHEVVRAWQAQADFPIRYVWQHNQHKKTAFNRGVREARGMLVVGLDSDDEIPPDALAILKDAWEGIPADRRETYVAVTGLCARPDGSIVGDRFPQDVFDSTAVDMYFRYRVQGEKFGAMRADVLRRFPFPEDVAGFVPESLVWWAISRAGYLSRFINRVVRVYHDTPGGLSQGGVSLSSNIQGLYLLAWDMLQHHLDWFRYRPREFIMAAARYTRFRLHLDNSGLPTAVQAYRLTQPSARLLVLLMWPLGYLLYRRDRRRGVA | failed |
| MSKPFMFEKPFGMRDTLPEWYKTKKNICDQMTEEINLWGYDMIETPTLEYYETVGVVSAILDQQLFKLLDQQGNTLVLRPDMTAPIARLVASSLKDRAYPLRLAYQSNVYRAQQNEGGKPAEFEQLGVELIGDGTASADGEVIALMIAALKRAGLSEFKVAIGHVGYVNALLMDVVGNEQRADRLRRFLYEKNYVGYREHVKSLNLSTIDKSRLMNLLSLRGGRAAIEEARGLIQTEKGKTALAEMTKLYEVLESYGASEYVKFDLTLVLHMSYYTGVVFEGYGNRLGVPLCSGGRYDELLSKFHRPAQATGFGVRIDLLVEALNGEIISNGHEQTCILFSNERRFEAIELARKKRANGEAVVLQDLAGVTDVDAMSSNYQDVIYCIGTAGRGGEDA | not failed |
| MPYKNILTLISVNNDNFENYFRKIFLDVRSSGSKKTTINVFTEIQYQELVTLIREALLENIDIGYELFLWKKNEVDIFLKNLEKSEVDGLLVYCDDENKVFMSKIVDNLPTAIKRNLIKDFCRKLS | not failed |
| MEKPRSIEETPSSEPMEEEEDDDLELFGGYDSFRSYNSSVGSESSSYLEESSEAENEDREAGELPTSPLHLLSPGTPRSLDGSGSEPAVCEMCGIVGTREAFFSKTKRFCSVSCSRSYSSNSKKASILARLQGKPPTKKAKVLHKAAWSAKIGAFLHSQGTGQLADGTPTGQDALVLGFDWGKFLKDHSYKAAPVSCFKHVPLYDQWEDVMKGMKVEVLNSDAVLPSRVYWIASVIQTAGYRVLLRYEGFENDASHDFWCNLGTVDVHPIGWCAINSKILVPPRTIHAKFTDWKGYLMKRLVGSRTLPVDFHIKMVESMKYPFRQGMRLEVVDKSQVSRTRMAVVDTVIGGRLRLLYEDGDSDDDFWCHMWSPLIHPVGWSRRVGHGIKMSERRSDMAHHPTFRKIYCDAVPYLFKKVRAVYTEGGWFEEGMKLEAIDPLNLGNICVATVCKVLLDGYLMICVDGGPSTDGLDWFCYHASSHAIFPATFCQKNDIELTPPKGYEAQTFNWENYLEKTKSKAAPSRLFNMDCPNHGFKVGMKLEAVDLMEPRLICVATVKRVVHRLLSIHFDGWDSEYDQWVDCESPDIYPVGWCELTGYQLQPPVAAEPATPLKAKEATKKKKKQFGKKRKRIPPTKTRPLRQGSKKPLLEDDPQGARKISSEPVPGEIIAVRVKEEHLDVASPDKASSPELPVSVENIKQETDD | failed |
| MSGPTWLPPKQPEPSRVPQGRALPRGTLGPPTAHGATLQPHPRVNFCPLPPEQCYQPPGVPEDRGPTWVGSHGAAQRLQGLPPDRGVIHPGSLDAEIDSLTSMLADLDGSRSHAPRRPDRQAFEAPPPHAYRGGSLKPSGGAVPAPMLPASPYGGPTPASYATASTPAGPAFPVQVKVAQPVRGCGLPRRGASQASGPLPGPHFPLTGRGEVWGAGYRSHREPGPGVKEGAAGVHNPAGGGRRGGHEPQGPLSQPPEEELERLTKKLVHDMNHPPSGEYFGRCGGCGDDVVGDGAGVVALDRVFHTGCFVCSTCRAQLRGQHFYAVERRAYCESCYVATLEKCSTCSEPILDRILRAMGKAYHPGCFTCVVCHRGLDGIPFTVDATSQIHCIEDFHRKFAPRCSVCGGAIMPEPGQEETVRIVALDRSFHIGCYKCEECGLLLSSEGECQGCYPLDGHILCKACSAWRIQELSATVTTDC | failed |
| MEAMTLPPQDLPPGQALLATPLGTANAPQAARVHTYPLRFTGQASEYFRVWIVNLALTVITLGLYTPWARIRTRQYLYGHTWLDDQNFEYTASPFALLRGYLIVVAFFGLYTAAQQLQFTGWEWVTGALGLLFAVAYPWLVRQSMRFQARSTVHRGLRFRFTGSLGDAYVSYGVANIAAVFSGSLALPWAWFMQRRYQADGLAYGTARGHFRGSLGPFYLIGLAGAGLTVLGIGLLAGLAIGAATIAGVLGDLNLEQLDTDLLTSAVVVAFVLGYLALAVLYGIAWQYVRAATMHYVLNNFELGGVVRTQATFSPWRLVWINLANTLARIFSLGLLTPWTVIRTNRYLLGHVQVRAIVSLDDFSAAQTEDESAVGEAATELLDINIGF | failed |
| IPVFNITSNRGRLLQQISVGDIWGVGRQWANKLISRGIHTAYDLAMTNPHLLKKCFNAVLMRTAMELQGIACGG | failed |
| KLPFDYQVNSTRHFMRELNRLGVTGAIDAGGGFQNYPDDYAVIQKLDEEGLLTIRLAYNLFTQKPKGEKDDFLNWTKTSKYKQGNDYFRHNGAGEMLVFSAADFEDFRVPRPDMPPEMEGELEEVVRILVQNKWPWRLHATYDETISRALDVFEKVNQDTPLDGLHWFFDHAETISDRSIDRIAALGGGIAVQHRMAYQGEYFVERYGFGAAEATPPVRRILDSGVKVSAGTDATRVASYNPWVSLSWLVTGRTVGGLRITPQRNCLDRETALRMWTENVTWFSNEEGN | failed |
| MKRLADVKISTLDLVPVRHDKGPAESLRNSLSLAQHVEKLGYNRFWVAEHHNMDGIASSATSVLLAYLAGGTSTIRVGAGGIMLPNHAPLVVAEQFGTLASLYPDRIDLGLGRAPGSDQMTARALRRERSGSAEDFPDDVTELMEYLGPRTPDQKVIAVPGSGTNVPIWLLGSSLFSAQLAGMRGLPYAFASHFAPRYMHEAIRVYRNHFQPSAVLDKPYVMLGVPLSAADTDEQAEYLATSVYQRILALMRGHSLMQRPPVDSMDGLWLPHEREAVASFLGLAMVGGPEKIRAKLDVLLEQTDADELIFTCDMYEHEDRLRSYEILAQ | failed |
| MTHPATVYSLSTRLLHWSMAFCFIGAIVLAYFVIWVLGHDHPQRLPVLNLHWVLGLLVGLLLVPRIVSRLRGPRLPAVPGTPLEHRLAHYAHLSLYALMLVMPLTGYVGTRLPTDFGLFVVPSFKDTALFAWISQTLNLSWEAFEKPFDAVHRVVGLWLSTSVVLLHALAAGYHQWVRRDGTLERMLGRRQRR | failed |
| MPKPGILKSKSMFCVIYRSSKRDQTYLYVEKKDDFSRVPEELMKGFGQPQLAMILPLDGRKKLVNADIEKVKQALTEQGYYLQLPPPPEDLLKQHLSVMGQKTDDTNK | not failed |
| DDANVVRDRDLEVDTTLKSLSQQIENIRSPEGSRKNPARTCRDLKMCHSDWKSGEYWIDPNQGCNLDAIKVFCNMETGETCVYPTQPSVAQKNWYISKNPKDKRHVWFGESMTDGFQFEYGGQGSDPADVAIQLTFLRLMSTEASQNITYHCKNSVAYMDQQTGNLKKALLLKGSNEIEIRAEGNSRFTYSVTVDGCTSHTGAWGKTVIEYKTTKSSRLPIIDVAPLDVGAPDQEFGFDVGPVCFL | failed |
| MEKASSPEKWLAKVSVTLTKAKPDEIWPLFTDFFNLHKWLPTLATCHGVHGNNGEQGCIRFCSGFSIGSNGVDSAARWSKEKLVAVNPVERVMRYEIVESNTGFESYVSTVKILPRGEDGCVIEWSFTVDPVRGLSLENLVKKYEKALEIITKNMEEDALRRRESSS | failed |
| MSLSYRIDVLLFNKFETLDVFGPVEIFGNLQDDFELNFISSDGGLVESSQKVRVETSLYTRDENIEKILFVPGGSGTREKVNDDNFINFIGNMVKESKYIISVCTGSALLSKAGILNGKRATTNKRSFKWVTEQNEDVLWVKEARWVKDGNIYTSSGVSAGIDMTLGFIEDLIGKEKALEISRSIEYFWNEDSNYDPFSKIYGEGHHHHHH | not failed |
| DQEVRLENRITFQLELVGLERVVRISAKPTKRLQEALQPILAKHGLSLDQVVLHRPGEKQPMDLENPVSSVASQTLVLDTPPDAKMSEARS | not failed |
| TLDLPMQMAAERALADVPQQAAIVALRPSTGEVLAVAQNAPADALGPIALTGLYPPGSTFKTVTTSAALQAGAATPDTVLPCPGTENIEGRQIPNDDEFDLGAVPLHTAFARSCNTTMGRLAVGLPPDALQQAALQFGLGVDYVTPGLTTVTGNVPVADSPAARVESGIGQGQVTATPFGMAMVAASIANGSTPSPMIVQGQPGTADKTAPTVPANVTSDLRTMMRETVTGGTATALQDIPGLLGKTGTAESGNGPAHGWFVGIKDDLAFAVFIATGDSSAPAVQAAGRFLR | failed |
| MTYFFETYGCQMNQAESSSMEQILLEKGWTNSSDAEHCDLLIINTCSVRITAENRVLGRLGHFSGLKKKRKFFVLLIGCMAERLYTEIQKEFPLIDYVVGMFERNLLPQIFDEIKARLKNDNYMAEFTHDNIEEKPVSGYYFAPLSHSPKSFQSYVPIMNGCNNFCTYCIVPYVRGREVSRPVNEILQEITELSSRGVREITLLGQNVNSYKGEDGEGRLIDFPKLLTLIAREADKTDMIRWIRFMSSHPKDMSDALIDTIAAEKRLCKLVHLPVQHGSDTILKRMNRVYTIEHYKNRIKRLKETIPDIALSTDILMGFPGETEDDVKATLDLMQEIEFDSAFMYHYNPREGTKAFNYPDRIPEEVKIERLGRVIDLQLKITAKKMKAKLGKKVDILVESHSRNERSELFGHTEQGEMTVIQGNPPESLIGNFAHAELKELKGKTFRANLN | failed |
| MSWWQDMDQRGGVSSPSGALASAEPAPASVTLAELLHLVQKGQEVPGLEKRHITATHGEPTASLLPRRPKPWEDAGSAASPCTIALDTRTQPPTIEERSRGSPAAQLDGGPRVS | failed |
| MHEIAPLSPAAAALADFQPDRGPAALNGAAVFCGFAPRPLDDGFTWADFGCGLGITASILAAANPQGRFFAIDADGQALAAGRALAKAAFLDNLTFLQADYTKPHDLDLPPLDFAVLGNVLCWLDGQERQALLSRLGTLLKPGGIVLATYDALPGAAALVPLRDLLFSVTAGQAANPVARARAAIDWLGAMRAAGIDFFRDNPALGPRLDALIERGPQALAGRFFGGTLRPLHFAQVNAEMAAQGLTFAGRAEAFLNLIDLAVPAALRPRLRAATSRAEVEATRDFIRNEDHRRDLYIKGAAPSDGAALTAFDDGRILGPAAAPGQANPEVSFGAVSLSFRGALFESLLAALDLGPRPVGELCASAALEGVPPGLIRDGLRLLTAGGLARPYARAADVAPAAPPVWPLRLPHPLNRALALTLGLGGPTVALASKVLGDGVVMDNRDALLLVALCDAGPEGAVERALAILADQAIPCGPATTQALTDRLSPLITDILPWLRVLGVVEG | failed |
| MGLIARLRRWYHLWVWRLRYWWYDTPSGVCAQHWAQGLGVLVFIVQLVRVWVAAALPAPHGAPAQAVYWWVWQLAIAVVAAYVSAALRPKPESVKPQQAQVPTVQDGQAVKHHFGTVWVGDEFILAWKMQGAIPIKTKGAGC | failed |
| MGLRMSESAKPYFAMVCLQFGYAGMNLVTKTVLDRGMSHYVLVAYRNAFATAAIAPFALLSERKVRSKMTFPIFMRIFLLALLGPVIDQNLYYIGLKLTSPTFSSAVSNIVPAITIILATLFRMEKVEMRKVRCLVKVMGTLVTVVGSILMIFYKGPFINFFRSHLTAASSPPTADYLKAAVFLLLASLSWASFFVLQAATLKKYSAHLSMSTMVCFMGTLQSLALAFVMEHNPSALNIGFDMNLLASAYAGIMSSSIAYYVQGLMMQRKGPVFVTAFNPLIVVIVSIMSFFVLGQGIYLGGYVNNNRVIGVVVLMVGVYAVLWGKHVDDDGEETRHEDNVVAVKCCSGNNGLTIMPKIDEADEEDVETGKATSEKESSVPEVVVVVFCSENVHSVSRPN | failed |
| MAKLVTENISKRFKNQDVLKHINITLENNEVYGLLGINGAGKTTLMKIICGILQQDSGEIKLDNRPMTRNDLHKVGSLIETPATYNHLSAQDNLKIVCLNESVDFSEINSVLSLVNLNVDKKKKVKDFSLGMKQRLGIAMALIKKPEILVLDEPSNGLDPYGIQELRELLKLLTEQGTSIIISSHILSEIQVLADHIGIIHEGELKYQQRNNKDENLEEIFFKITKGDYK | failed |
